Experimental data from the RNAGym collection of RNA variant scans (doi:10.7554/elife.80360).

B1: CPEB3 Ribozyme (parent)
chain: GGGGGCCACAGCAGAAGCGUUCACGUCGCGGCCCCUGUCAGAUUCUGGUGAAUCUGCGAAUUCUGCUGU

Variants of: B1
Assay: self-cleavage, relative activity (ratio to wild type); higher = more cleavage; co-transcriptional

Variant	self-cleavage
GGGGGCCACAGCAGGAGCGUUCACGUCGCGGCCCCGGUCAGAUUCUGGUGAAUCUGCGAAUUCUGCUGU [A15G U36G]	0.152
GGGGGCCACAGCAGGAGCGUUCACGUCGCGGCCCCAGUCAGAUUCUGGUGAAUCUGCGAAUUCUGCUGU [A15G U36A]	0.203
GGGGGCCACAGCAGGAGCGUUCACGUCGCGGCCCCCGUCAGAUUCUGGUGAAUCUGCGAAUUCUGCUGU [A15G U36C]	0.966
GGGGGCCACAGCAGGAGCGUUCACGUCGCGGCCCCUGUCAGAUUCUGGUAAAUCUGCGAAUUCUGCUGU [A15G G50A]	0.973
GGGGGCCACAGCAGGAGCGUACACGUCGCGGCCCCUGUCAGAUUCUGGUGAAUCUGCGAAUUCUGCUGU [A15G U21A]	0.956
GGGGGCCACAGCAGGAGCGUGCACGUCGCGGCCCCUGUCAGAUUCUGGUGAAUCUGCGAAUUCUGCUGU [A15G U21G]	0.578
GGGGGCCACAGCAGGAGCGUUCACGUCGCGGCCCCUGUCAUAUUCUGGUGAAUCUGCGAAUUCUGCUGU [A15G G41U]	0.891
GGGGGCCACAGCAGGAGCGUUCACGUCGCGGCCCCUGUCAGAUUCUGGUGAAUCUUCGAAUUCUGCUGU [A15G G56U]	0.985
GGGGGCCACAGCAGGAGCGUUCACGUCGCGGCCCCUGUCAGAUUCUGGUGAAUCUCCGAAUUCUGCUGU [A15G G56C]	0.785
GGGGGCCACAGCAGGAGCGUUCACGUCGCGGCCCCUGUCAGAUUCUGGUGAAUCUACGAAUUCUGCUGU [A15G G56A]	0.944
GGGGGCCACAGCAGGAGCGUUCACGUCACGGCCCCUGUCAGAUUCUGGUGAAUCUGCGAAUUCUGCUGU [A15G G28A]	0.179
GGGGGCCACAGCAGGAGCGUUCACGUCUCGGCCCCUGUCAGAUUCUGGUGAAUCUGCGAAUUCUGCUGU [A15G G28U]	0.141
GGGGGCCACAGCAGGAGCGUUCACGUCGCUGCCCCUGUCAGAUUCUGGUGAAUCUGCGAAUUCUGCUGU [A15G G30U]	0.342
GGGGGCCACAGCAGGAGCGUUCACGUCGCAGCCCCUGUCAGAUUCUGGUGAAUCUGCGAAUUCUGCUGU [A15G G30A]	0.917
GGGGGCCACAGCAGGAGCUUUCACGUCGCGGCCCCUGUCAGAUUCUGGUGAAUCUGCGAAUUCUGCUGU [A15G G19U]	0.439
GGGGGCCACAGCAGGAGCGUUCACGGCGCGGCCCCUGUCAGAUUCUGGUGAAUCUGCGAAUUCUGCUGU [A15G U26G]	0.953
GGGGGCCACAGCAGGAGCGUUCACGACGCGGCCCCUGUCAGAUUCUGGUGAAUCUGCGAAUUCUGCUGU [A15G U26A]	0.905
GGGGGCCACAGCAGGAGCGUUCACGCCGCGGCCCCUGUCAGAUUCUGGUGAAUCUGCGAAUUCUGCUGU [A15G U26C]	1.03
GGGGGCCACAGCAGGAGCGUUCACAUCGCGGCCCCUGUCAGAUUCUGGUGAAUCUGCGAAUUCUGCUGU [A15G G25A]	0.127
GGGGGCCACAGCAGGAGCGUUCACUUCGCGGCCCCUGUCAGAUUCUGGUGAAUCUGCGAAUUCUGCUGU [A15G G25U]	0.148

Variant	self-cleavage
GGGGGCCACAGCAGGAGCGUUCACCUCGCGGCCCCUGUCAGAUUCUGGUGAAUCUGCGAAUUCUGCUGU [A15G G25C]	0.133
GGGGGCCACAGCAGGAGCGUUCACGUCGCGGCCCCUGUCAGAUUCUGGUGAAUCUGCGAAUUCUGCUAU [A15G G68A]	1.02
GGGGGCCACAGCAGGAGCGUUCACGUCGCGGCCCCUGUCAGAUUCUGGUGAAUCUGCGAAUUCUGCUCU [A15G G68C]	1.05
GGGGGCCACAGCAGGAGCGUUCACGUCGCGGCCCCUGUCAGAUUCUGGUGAAUCUGCGAAUUCUCCUGU [A15G G65C]	0.825
GGGGGCCACAGCAGGAGCGUUCACGUCGCGGCCCCUGUCAGAUUCUGGUGAAUCUGCGAAUUCUUCUGU [A15G G65U]	0.784
GGGGGCCACAGCAGGAGCGUUCACGUCGCGGCCCCUGUCAGAUUCUGGUGAAUCUGCCAAUUCUGCUGU [A15G G58C]	1.01
GGGGGCCACAGCAGGAGCGUUCACGUCGCGGCCCCUGUCAGAUUCUGGUGAAUCUGCUAAUUCUGCUGU [A15G G58U]	0.978
GGGGGCCACAGCAGGAGCGUUCACGUCGCGGCCCCUGCCAGAUUCUGGUGAAUCUGCGAAUUCUGCUGU [A15G U38C]	0.97
GGGGGCCACAGCAGGAGCGUUCACGUCGCGGCCCCUGGCAGAUUCUGGUGAAUCUGCGAAUUCUGCUGU [A15G U38G]	0.157
GGGGGCCACAGCAGGAGCGUUCACGUCGCGCCCCCUGUCAGAUUCUGGUGAAUCUGCGAAUUCUGCUGU [A15G G31C]	0.204
GGGGGCCACAGCAGGAGCGUUCACGUCGCGACCCCUGUCAGAUUCUGGUGAAUCUGCGAAUUCUGCUGU [A15G G31A]	0.874
GGGGGCCACAGCAGGAGCGUUCACGUCGCGGCCCCUGUCAGAUUCUGAUGAAUCUGCGAAUUCUGCUGU [A15G G48A]	0.966
GGGGGCCACAGCAGGAGCGUUCACGUCGCGGCCCCUGUCAGAUUCUGCUGAAUCUGCGAAUUCUGCUGU [A15G G48C]	1
GGGGGCCACAGCAGGAGCGUUCACGUCGCGGCCCCUGUCAGAUUCUGUUGAAUCUGCGAAUUCUGCUGU [A15G G48U]	0.989
GGGGGCCACAGCAGGAGCGUUCACGUCGCGGCCCCUAUCAGAUUCUGGUGAAUCUGCGAAUUCUGCUGU [A15G G37A]	0.27
GGGGGCCACAGCAGGAGCGUUCACGUCGCGGCCCCUUUCAGAUUCUGGUGAAUCUGCGAAUUCUGCUGU [A15G G37U]	0.286
GGGGGCCACAGCAGGAGCGAUCACGUCGCGGCCCCUGUCAGAUUCUGGUGAAUCUGCGAAUUCUGCUGU [A15G U20A]	0.092
GGGGGCCACAGCAGGAGCGGUCACGUCGCGGCCCCUGUCAGAUUCUGGUGAAUCUGCGAAUUCUGCUGU [A15G U20G]	0.161
GGGGGCCACAGCAGGAGCGUUCACGUCGCGGCCCCUGUCAGAUUCUAGUGAAUCUGCGAAUUCUGCUGU [A15G G47A]	0.971
